Data from patent US7109015B2, “Removal of N-terminal methionine from proteins by engineered methionine aminopeptidase” (Academia Sinica, priority 2004, dated 2006).
“And” between values parts separate entries of the source, which are not always exact repeats. Identical values can stand only once. Like-named read-outs stand apart in the source and are kept apart here.

Key:
synthetic oligopeptides [1] = biological target: T1, synthetic oligopeptides (Escherichia coli, UniProt P0AE18, M206T/Q233G/Y168G); format: biochemical; settings: dodecapeptides, in vitro
T1 construct: […]; made in house; host or cells: E. coli BL21(DE3)
T1 sequence (P0AE18 2-264 Y168G/M206T/Q233G): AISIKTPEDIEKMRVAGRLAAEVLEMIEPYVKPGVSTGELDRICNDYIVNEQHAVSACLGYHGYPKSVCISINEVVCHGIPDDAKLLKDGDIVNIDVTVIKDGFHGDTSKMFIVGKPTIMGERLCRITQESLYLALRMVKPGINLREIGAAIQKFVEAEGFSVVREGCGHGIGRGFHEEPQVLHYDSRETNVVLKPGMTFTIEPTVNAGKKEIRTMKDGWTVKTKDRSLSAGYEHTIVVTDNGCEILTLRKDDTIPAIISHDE
Protocol: (§1) The oligopeptide substrates used in this experiment were synthesized on the 432A Synergy peptide synthesizer (Applied Biosystems, Foster, Calif., USA). The enzymatic activity of purified MetAP was assayed as described by Ben-Bassat et al., 1987. Briefly, the diluted MetAP enzyme in 10 μl was added to 90 μl of the substrate solution containing 4 mM oligopeptide, 0.1 M potassium phosphate buffer, pH 7.5 and 0.2 mM CoCl2, incubated at 37° C. for 10 min and stopped in boiling water for 2 min. After addition of 0.9 ml of color development mixture containing 0.2 mg of L-amino acid oxidase, 0.03 mg of horseradish peroxidase and 0.2 mg of o-dianisidine in 0.1 M Tris-HCl, pH 7.4, the mixtures were incubated for 10 min at 37° C., and the optical density at 440 nm was recorded. One unit of activity is defined as 1 μmol of amino acids produced per min under the assay conditions and the pure Met was used as standard. The N-terminal residues of the MetAP-treated oligopeptide were further verified by Edman degradation.

synthetic oligopeptides [2] = format: biochemical; settings: for Specific activity (unit/mg): 4 mM oligopeptide, pH 7.5, 37° C.
Protocol: as §1

Met-tagged onconase = assay: In vivo catalytic activity of MetAPs co-expressed with Met-tagged onconase in E. coli BL21(DE3); N-terminus by Edman degradation; format: cell-based; settings: in vivo in E. coli
Description: Residues Tyr168, Met206 and Gln233 in the putative substrate-binding site of E. coli MetAP were mutated by site-directed mutagenesis based on the crystal structure and amino acid sequence alignment of MetAPs (Ben-Bassat et al., 1987; Lowther et al., 1999; Walker et al., 1999). For the expression of secretory ribonucleases, the ribonuclease gene was cloned and expressed as described previously (Huang et al., 1998).
Most of the co-expressed target protein, e.g., onconase or RC-RNase L1, existed in insoluble cell lysate. They were denatured, renatured and purified as described previously (Liao et al., 2003). The purified ribonucleases were stored in 20 mM sodium phosphate, pH 7.0, for pyroglutamate formation at the N-terminus. Alternatively, the ribonuclease secreted into culture medium through pe1B system was concentrated and purified to electrophoretical homogeneity at a yield of 1˜5 mg per 1 liter of culture (Huang et al., 1998).

B1: MetAP-GTG (protein)
chain: T1 sequence (P0AE18 2-264 Y168G/M206T/Q233G)
Synthetic oligopeptides [1]
  Specific activity on […] as % of that for […]: 43%
Synthetic oligopeptides [2]; oligopeptides with Gln at the penultimate residue
  In vitro catalytic activity: the most activity
Synthetic oligopeptides [2]; substrate MADY (SEQ ID NO:7)
  Specific activity (unit/mg): 1.68 ± 0.51 unit/mg
Synthetic oligopeptides [2]; substrate MADYLT (SEQ ID NO:8)
  Specific activity (unit/mg): 2.50 ± 0.42 unit/mg
Synthetic oligopeptides [2]; substrate MQDYLT (SEQ ID NO:9)
  Specific activity (unit/mg): 0.23 ± 0.01 unit/mg
Synthetic oligopeptides [2]; substrate […] (SEQ ID NO:5)
  Specific activity (unit/mg): 9.80 ± 0.26 unit/mg
Synthetic oligopeptides [2]; substrate […] (SEQ ID NO:6)
  Specific activity (unit/mg): 4.24 ± 0.14 unit/mg
Met-tagged onconase; substrate MAA-Onc
  Catalytic activity (%): percent of penultimate residue removed: 30%
  Catalytic activity (%): removal of N-terminal Met: 100%
Met-tagged onconase; substrate MAG-Onc
  Catalytic activity (%): percent of penultimate residue removed: 16%
  Catalytic activity (%): removal of N-terminal Met: 86%
Met-tagged onconase; substrate MAL-Onc
  Catalytic activity (%): removal of N-terminal Met: 100%
Met-tagged onconase; substrate MAM-Onc
  Catalytic activity (%): removal of N-terminal Met: 96%
Met-tagged onconase; substrate MDD-Onc
  Catalytic activity (%): removal of N-terminal Met: 27%
Met-tagged onconase; substrate MED-Onc
  Catalytic activity (%): removal of N-terminal Met: 35%
Met-tagged onconase; substrate MFA-Onc
  Catalytic activity (%): percent of penultimate residue removed: 100%
  Catalytic activity (%): removal of N-terminal Met: 36%
Met-tagged onconase; substrate MFD-Onc
  Catalytic activity (%): removal of N-terminal Met: 23%
Met-tagged onconase; substrate MIA-Onc
  Catalytic activity (%): removal of N-terminal Met: 96%
Met-tagged onconase; substrate MID-Onc
  Catalytic activity (%): removal of N-terminal Met: 94%
Met-tagged onconase; substrate MKA-Onc
  Catalytic activity (%): removal of N-terminal Met: 9%
Met-tagged onconase; substrate MKD-Onc
  Catalytic activity (%): removal of N-terminal Met: 7%
Met-tagged onconase; substrate MLA-Onc
  Catalytic activity (%): percent of penultimate residue removed: 80%
  Catalytic activity (%): removal of N-terminal Met: 100%
Met-tagged onconase; substrate MLD-Onc
  Catalytic activity (%): removal of N-terminal Met: 90% and 98%
Met-tagged onconase; substrate MLG-Onc
  Catalytic activity (%): percent of penultimate residue removed: 46%
  Catalytic activity (%): removal of N-terminal Met: 87%
Met-tagged onconase; substrate MLH-Onc
  Catalytic activity (%): percent of penultimate residue removed: 51%
  Catalytic activity (%): removal of N-terminal Met: 100%
Met-tagged onconase; substrate MLL-Onc
  Catalytic activity (%): percent of penultimate residue removed: 55%
  Catalytic activity (%): removal of N-terminal Met: 93%
Met-tagged onconase; substrate MLM-Onc
  Catalytic activity (%): removal of N-terminal Met: 100%
Met-tagged onconase; substrate MLN-Onc
  Catalytic activity (%): percent of penultimate residue removed: 68%
  Catalytic activity (%): removal of N-terminal Met: 100%
Met-tagged onconase; substrate MLP-Onc
  Catalytic activity (%): percent of penultimate residue removed: 95%
  Catalytic activity (%): removal of N-terminal Met: 55%
Met-tagged onconase; substrate MLS-Onc
  Catalytic activity (%): percent of penultimate residue removed: 69%
  Catalytic activity (%): removal of N-terminal Met: 87%
Met-tagged onconase; substrate MLT-Onc
  Catalytic activity (%): percent of penultimate residue removed: 54%
  Catalytic activity (%): removal of N-terminal Met: 72%
Met-tagged onconase; substrate MLV-Onc
  Catalytic activity (%): percent of penultimate residue removed: 69%
  Catalytic activity (%): removal of N-terminal Met: 97%
Met-tagged onconase; substrate MQD-Onc
  Catalytic activity (%): removal of N-terminal Met: 97%
Met-tagged onconase; substrate MQM-Onc
  Catalytic activity (%): percent of penultimate residue removed: 100%
  Catalytic activity (%): removal of N-terminal Met: 100%
  Catalytic activity (%): value in parenthesis after Met and Gln removal (third cleavage site, second Met): 73%
Met-tagged onconase; substrate MQN-Onc
  Catalytic activity (%): percent of penultimate residue removed: 90%
  Catalytic activity (%): removal of N-terminal Met: 83%
Met-tagged onconase; substrate MQP-Onc
  Catalytic activity (%): percent of penultimate residue removed: 100%
  Catalytic activity (%): removal of N-terminal Met: 54%
Met-tagged onconase; substrate MQT-Onc
  Catalytic activity (%): percent of penultimate residue removed: 79%
  Catalytic activity (%): removal of N-terminal Met: 86%
Met-tagged onconase; substrate MRA-Onc
  Catalytic activity (%): removal of N-terminal Met: 8%
Met-tagged onconase; substrate MRD-Onc
  Catalytic activity (%): removal of N-terminal Met: 4%
Met-tagged onconase; substrate MWA-Onc
  Catalytic activity (%): percent of penultimate residue removed: 89%
  Catalytic activity (%): removal of N-terminal Met: 100%
Met-tagged onconase; substrate MWD-Onc
  Catalytic activity (%): removal of N-terminal Met: 78%
Met-tagged onconase; substrate MWD-Onc, listed as GTG
  Catalytic activity (%): removal of N-terminal Met: much higher activities
Met-tagged onconase; substrate MYA-Onc
  Catalytic activity (%): removal of N-terminal Met: 22%
Met-tagged onconase; substrate MYD-Onc
  Catalytic activity (%): removal of N-terminal Met: 20%
Met-tagged onconase; substrate MYD-Onc, listed as GTG
  Catalytic activity (%): removal of N-terminal Met: much higher activities
